Here are results for 9 molecules from patent US6333189A, “Method of making an electrotransport device” (ALZA Corporation, priority 1997, dated 2001).

Ends that are not written are not given here.

The conditions of data set [1]: in vitro skin permeation; cited from earlier work.
The conditions of data set [2]: in vitro and in vivo studies; cited from earlier work.
Data set [3] is described as follows: Circular dichroism in varying trifluoroethanol concentrations, PTH analogs. The data set is classed as physicochemical. The arrangement: [θ]222 (mean residue ellipticity): unit not given here. The conditions noted are these: for [θ]222 (mean residue ellipticity): pH 6.5 10 mM cacodylate, 20° C; for helicity: 30% (v/v) TFE. Here is the method:
The trifluoroethanol (TFE) circular dichroism studies were done using an AVIV Associates, Inc. Model 62DS Circular Dichroism Spectrometer. Protein concentrations were determined from absorbance readings using calculated extinction coefficients for the analogs in 10 mM ionic buffer. TFE titrations were done from 0 to 50% TFE, scanning from 250 to 200 nm at 20° C. for each TFE sample.
On the technique in general: Circular dichroism is the unequal absorption of left and right circularly polarised light.

The nature of data set [4]: Stability when incubated with stripped stratum corneum. The data set is classed as in vitro ADME, human.
Data set [5] in a line: In vitro electrotransport flux of the PTH analogs. To be noted: retro-inverso versions, 1 mM, pH 5.0, 0.1 mA/cm^2, 32° C, BSA/Tween 20 receptor.
The test system of data set [6] is PTH receptor (rat osteosarcoma cell line UMR106). Put plainly: adenylate cyclase stimulation / cAMP in UMR106 cells (PTH receptor activation). The data set is classed as cell-based. To be noted: for EC50: cAMP, 5 minutes, 1 mM IBMX, read-out: EC-50 (effective concentration). Here is the method:
The peptide was then desalted and partially purified on a SepPak column. Individual peaks were isolated and analyzed by electrospray mass spectrometry to determine the composition.
PTH concentrations were determined by OD280 using an extinction coefficient of 6600 for the recombinant peptide and 5500 for the synthetic peptide. […] Activation of the PTH receptor leads to an intracellular rise in cAMP concentration.
The UMR106 cells were seeded at about 2.5×10^5 per well in a 48 well dish and allowed to grow to confluence. Assays were performed on cells 3-5 days postconfluence. The media (Dulbecco's modified Eagle's medium, DMEM, with fetal calf serum) was removed, and 1 mL of fresh media was applied. PTH (recombinant or synthetic) at various concentrations and 3-isobutyl-1-methyl xanthine (IBMX) at 1 mM final concentration were then added to each well of the plate, which was then incubated for 5 minutes at room temperature. The media was then removed and the cells quickly washed with ice cold PBS. The cells were then extracted twice with 1 mL of absolute ethanol. The two extractions were combined and the ethanol removed by evaporation. The extract was then redissolved in 1 mL of scintillation proximity buffer (SPA buffer) (Amersham, Arlington Heights, Ill.). The cAMP concentration was determined by assay using a scintillation proximity assay (SPA) kit available from Amersham.

The target in data set [7] is T1, PTH receptor (rat, UniProt P25961).
Target sequence in this assay (P25961 27-591): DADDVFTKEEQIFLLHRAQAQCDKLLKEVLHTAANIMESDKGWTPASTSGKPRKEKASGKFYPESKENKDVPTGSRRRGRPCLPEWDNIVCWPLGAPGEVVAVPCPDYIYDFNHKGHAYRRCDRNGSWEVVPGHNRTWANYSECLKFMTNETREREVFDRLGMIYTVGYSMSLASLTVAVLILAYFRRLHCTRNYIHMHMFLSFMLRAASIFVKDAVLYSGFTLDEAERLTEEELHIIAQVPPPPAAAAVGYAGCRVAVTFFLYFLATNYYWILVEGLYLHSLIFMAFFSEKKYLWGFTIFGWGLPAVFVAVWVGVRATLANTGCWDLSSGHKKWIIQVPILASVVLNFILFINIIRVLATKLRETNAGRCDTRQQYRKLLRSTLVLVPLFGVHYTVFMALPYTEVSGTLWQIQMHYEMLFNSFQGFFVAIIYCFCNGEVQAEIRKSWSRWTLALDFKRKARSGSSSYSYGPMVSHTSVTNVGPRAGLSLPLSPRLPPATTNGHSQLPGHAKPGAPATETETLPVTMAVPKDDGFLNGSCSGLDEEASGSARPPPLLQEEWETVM
Data set [8] concerns the target T1, PTH receptor. Put plainly: Kd reported in the PTH analog activity assay on UMR106 cells; the method used for the Kd is not described.
The target of the next data set is PTH receptor (rat) (UniProt P25961).
PTH receptor (rat), sequence (P25961 27-591): as above

With `NC(=O)[C@@H]1CCCN1C(=O)[C@H](Cc1cnc[nH]1)NC(=O)[C@@H]1CCC(=O)N1` [thyrotropin releasing hormone], the “electrotransport flux compared with passive diffusional flux” value in data set [1] is recorded as “higher than passive diffusional flux”.

`NC(=O)CC[C@@H]1NC(=O)[C@H](Cc2ccccc2)NC(=O)[C@H](Cc2ccc(O)cc2)NC(=O)[C@@H](N)CSSC[C@@H](C(=O)N2CCC[C@H]2C(=O)N[C@@H](CCCN=C(N)N)C(=O)NCC(N)=O)NC(=O)[C@H](CC(N)=O)NC1=O` [vasopressin]: in data set [2], the “transdermal delivery via electrotransport” value is listed as “possible”.

Regarding “PTH analog 1: FIG. 1B (SEQ ID NO:7): Met8Leu, Leu15Arg, Met18Leu, Glu19Arg, Glu22Arg, Gln29Lys, Phe34Tyr, homoserine lactone at the C-terminus”, the “[θ]222 (mean residue ellipticity)” value in [3] (0% TFE) is recorded as -4205; in data set [3] (10% TFE), -9333; in data set [3] (20% TFE), -23098; in data set [3] (30% TFE), -26334; in [3] (40% TFE) it was -27580; in data set [3] (50% TFE) it was -27705. Further, in [3], the helicity entry is “about 80%”. The “stability when incubated with stripped stratum corneum” value in data set [4] was “not stable”. Besides, the “median mass flux (95% confidence interval)” value in data set [5] (95% CI: analog 1 0.1 to 0.7, analog 2 2.1 to 4.2) was determined as 0.3 μg cm^-2 h^-1. Besides, the “average mass flux ± sd” value in data set [5] (sd: analog 1 ±2.3, analog 2 ±3.7) is given as 1.4 μg cm^-2 h^-1. The EC50 in data set [6] (UMR106 cells) worked out at 0.9 nM.

On to “PTH analog 3: amino acid sequence of FIG. 1D (SEQ ID NO:9); recombinantly synthesized (SVSEIQLMHNLGKHLNSMERPEWLRKKPQDVHNF)”, for which the “[θ]222 (mean residue ellipticity)” value in [3] (0% TFE) is reported as -3867; in data set [3] (10% TFE), -6479; in data set [3] (20% TFE), -12329; in [3] (30% TFE) it was -15161; in data set [3] (40% TFE), -15191; in data set [3] (50% TFE), -15395. Also, in data set [3], the helicity entry is on record as “about 15%”. Besides, in data set [3] (no TFE), the “helix in the absence of the helix-inducing TFE (in words)” value is “essentially devoid of helix”. Besides, the “activity (ability to stimulate adenylate cyclase)” value in [6] (UMR106 cells) is listed as “no measurable activity”.

“Synthetic PTH having the wild-type sequence (ligand)” registered a stimulation of adenylate cyclase (intracellular cAMP, scintillation proximity assay) in UMR106 cells with PTH receptor [7] of 4.4 nM.

For “Wild-type PTH: wild-type, parent PTH polypeptide, FIG. 1A (SEQ ID NO:6), 34 amino acid residues [reference compound]”, the EC50 in data set [6] (UMR106 cells) was 4.4 nM.

On to “insulin: insulin, cited electrotransport study”, for which the “transdermal delivery via electrotransport” value in data set [2] was “possible”.

Regarding SVSEIQLLHNLGKHRNSLRRVRWLRKKLKDVHNY-{HSL} (ligand) [PTH analog 1 (1-35)], the Kd (in general, the constant that tells how readily two partners part at equilibrium) with PTH receptor [8] was determined as 1.5 nM. In addition, the stimulation of adenylate cyclase (intracellular cAMP, scintillation proximity assay) in UMR106 cells with PTH receptor (rat) was determined as 0.9 nM.

B1: RPTH: recombinant PTH (RPTH), HPLC purified or crude Sep-Pak purified (peptide, UniProt P01270 32-115, looked up)
Parathyroid hormone: SVSEIQLMHNLGKHLNSMERVEWLRKKLQDVHNFVALGAPLAPRDAGSQRPRKKEDNVLVESHEKSLGEADKADVNVLTKAKSQ
B1: the “adenylate cyclase stimulatory ability, crude Sep-Pak purified vs HPLC purified” value in [6] (crude Sep-Pak purified sample compared with HPLC purified RPTH) is “no significant difference in adenylate cyclase stimulatory ability”.
